Substitutions are numbered along the chain they refer to.
Tests used:
[1] = tested on: hMLH1 promoter; assay: Bisulfite conversion and sequencing of the hMLH1 promoter region; format: cell-based, human; conditions: untransfected HEK293T cells treated for 6 days
Text: Casilio-mediated delivery of demethylation enzymes alters methylation state of targeted genomic locus. Evidence that the shown Casilio-ME-induced activation of hMLH1 transcription is a result of TET1-mediated cytosine demethylation within the targeted promoter region came from DNA sequencing of hMLH1 promoter after bisulfite conversion. Bisulfite treatment of genomic DNA deaminates unmethylated cytosines to produce uracils that are subsequently replicated as thymine. However, methylated cytosines are protected from conversion to uracils, thus allowing one to determine cytosine methylation states at single-nucleotide resolution by direct sequencing.
To assess changes in methylation states of CpG island within hMLH1 promoter region after Casilio-ME-mediated transcription activation, time course experiment were carried out where cells were collected 3, 4, 5, and 6 days post transfection, for analysis of cytosine methylation as well as transcription activation, and protein expression. HEK293T were transfected with Casilio-ME components that includes Ct-fusion PUFa-TET1 effector and a combination of 2 sgRNAs (RNA guides 3 and 7).
Cell culture and transfection. […]

[2] = tested on: hMLH1; assay: hMLH1 mRNA levels by TaqMan qRT-PCR in transfected HEK293T cells; format: cell-based, human; conditions: HEK293T; sgRNAs 3+7; 60 hours post-transfection; GAPDH normalised
Description: To test the system, HEK293T cells were transfected with Casilio-ME components including Ct or Nt-fusion TET1-effector and a combination of 3 or 2 sgRNAs. Relative levels of hMLH1 mRNA were determined in TaqMan assays by using RNA extracted from cells 60 hours post-transfection and GAPDH as endogenous control for normalization of qRT-PCR measurements.
Cell culture and transfection. HEK293T cells were cultivated in Dulbecco's modified Eagle's medium (DMEM)(Sigma) with 10% fetal bovine serum (FBS)(Lonza), 4% Glutamax (Gibco), 1% Sodium Pyruvate (Gibco) and penicillin-streptomycin (Gibco) in an incubator set to 37° C. and 5% CO2. When indicated cells were treated with 2.5 μM or 5 μM 5-Azacytidine (sigma) as indicated with a daily change of medium containing freshly diluted drug. Cells were seeded into 12-well plates at 150,000 cells per well the day before being transfected with 100 ng of dCas9 construct, 100 ng of modified sgRNA construct and 200 ng of PUF-fusion with Attractene transfection reagent according to manufacturer's instructions (Qiagen). In dCas9-direct fusion experiments, cells were transfected with 200 ng dCas9-fusion constructs and 200 ng of modified sgRNA constructs. Transfected cells were harvested 60 hours after transfection, or otherwise indicated, and cell pellets were used for extractions of RNA, genomic DNA and protein.
Quantitative RT-PCR analysis. Cells were harvested, washed with Dulbecco's phosphate-buffered saline (dPBS), centrifuged at 125×g for 5 min and then the flash-frozen pellets were stored at −80° C. RNA was extracted using RNeasy Plus Mini Kit according to the manufacturer's instructions (Qiagen). cDNA libraries were made using Applied Biosystems High Capacity RNA-to-cDNA kit with 200 ng to 1 μg of RNA. TaqMan gene expression assays (Applied Biosystems) were designed using GAPDH (Hs03929097, VIC) as endogenous control and hMLH1 (Hs00179866, FAM) as target. TaqMan Universal Master Mix II, with UNG (Applied Biosystems) was used for Quantitative PCR (qPCR), with 2 μl of diluted cDNA used for each reaction. Activation was analyzed with the Applied Biosystems ViiA7 instrument. Gene expression levels were calculated by “delta delta Ct” algorithm and normalized to control samples.

[3] = tested on: TetO::tdTomato transgene; assay: TetO::tdTomato transgene activation measured by FACS; format: cell-based; conditions: for transgene activation with 15, 20, and 47 copies of PBS: with dCas9 and sgTetO-PBS, compared with 5-10 copies
Text: In particular, to test whether appending PBS to the 3′ end of sgRNA affects sgRNA function, a series of modified Tet-targeting (sgTetO) or non-targeting control (sgControl) sgRNA were generated, with 0 copy, 5 copies, 15 copies, 25 copies, and 47 copies of the 8-mer Pumilio homologue domain-binding sequence (PBS) for PUF (3-2) (also simply referred to as PUFa) [PBS32 or PBSa: SEQ ID NO:8 (5′-UGUAUgUA-3′)], PUF(6-2/7-2) (also simply referred to as PUFb) [PBS6272 or PBSb: SEQ ID NO:9 (5′-UugAUAUA-3′)].
Cells were transfected with dCas9-VP64 with the different sgRNA scaffolds, and were analyzed by fluorescent-activated cell sorting (FACS) two days after transfection (FIG. 1B).
Fusions of PUF(3-2)::VP64 and PUF(6-2/7-2)::VP64, which interacts with sgRNA (sgRNA-PBS32) with 5′-UGUAUgUA-3′ binding sites and sgRNA-PBS6272 with 5′-UugAUAUA-3′ binding sites, respectively, were created, and their activity to turn on tdTomato expression in conjunction with dCas9 was tested. In addition, two additional pairs, PUFw-VP64 recognizing PBSw (5′-UGUAUAUA-3′) and PUFc-VP64 recognizing PBSc (5′-UugAUgUA-3′), were also constructed to test their ability to activate the same TetO::tdTomato expression in conjunction with dCas9 (FIG. 1D).
Cell Culture for Experiments. HEK293T cells were cultivated in Dulbecco's modified Eagle's medium (DMEM)(Sigma) with 10% fetal bovine serum (FBS)(Lonza), 4% Glutamax (Gibco), 1% Sodium Pyruvate (Gibco) and penicillin-streptomycin (Gibco). Incubator conditions were 37° C. and 5% CO2. For activation experiments, cells were seeded into 12-well plates at 100,000 cells per well the day before being transfected with 200 ng of dCas9 construct, 100 ng of modified sgRNA and 100 ng of PUF-fusion with Attractene transfection reagent (Qiagen). After transfection, cells were grown for 48 hrs and harvested for either RNA extraction or fluorescent-activated cell sorting (FACS). […]
Fluorescent-Activated Cell Sorting. […] Samples were analyzed on a FACScalibur flow cytometer using CellQuest Pro software (BD Bioscience). […] were collected in each run.

## Nc1ncn([C@@H]2O[C@H](CO)[C@@H](O)[C@H]2O)c(=O)n1 [5′azacytidine, 5-Azacytidine]
[1]
  bisulfite conversion frequency within hMLH1 promoter region: increased bisulfite conversion frequency on multiple CpG sites

B1: TET1(CD)-PUFa: hTET1 catalytic domain fused to the N-terminus of PUFa (protein)
chain: MGPAELPTCSCLDRVIQKDKGPYYTHLGAGPSVAAVREIMENRYGQKGNAIRIEIVVYTGKEGKSSHGCPIAKWVLRRSSDEEKVLCLVRQRTGHHCPTAVMVVLIMVWDGIPLPMADRLYTELTENLKSYNGHPTDRRCTLNENRTCTCQGIDPETCGASFSFGCSWSMYFNGCKFGRSPSPRRFRIDPSSPLHEKNLEDNLQSLATRLAPIYKQYAPVAYQNQVEYENVARECRLGSKEGRPFSGVTACLDFCAHPHRDIHNMNNGSTVVCTLTREDNRSLGVIPQDEQLHVLPLYKLSDTDEFGSKEGMEAKIKSGAIEVLAPRRKKRTCFTQPVPRSGKKRAAMMTEVLAHKIRAVEKKPIPRIKRKNNSTTTNNSKPSSLPTLGSNTETVQPEVKSETEPHFILKSSDNTKTYSLMPSAPHPVKEASPGFSWSPKTASATPAPLKNDATASCGFSERSSTPHCTMPSGRLSGANAAAADGPGISQLGEVAPLPTLSAPVMEPLINSEPSTGVTEPLTPHQPNHQPSFLTSPQDLASSPMEEDEQHSEADEPPSDEPLSDDPLSPAEEKLPHIDEYWSDSEHIFLDANIGGVAIAPAHGSVLIECARRELHATTPVEHPNRNHPTRLSLVFYQHKNLNKPQHGFELNKIKFEAKEAKNKKMKASEQKDQAANEGPEQSSEVNELNQIPSHKALTLTHDNVVTVSPYALTHVAGPYNHWVIDGGGGSDPKKKRKVDPKKKRKVDPKKKRKVGSTGSRNDGGGGSGGGGSGGGGSGRAGILPPKKKRKVSRGRSRLLEDFRNNRYPNLQLREIAGHIMEFSQDQHGSRFIQLKLERATPAERQLVFNEILQAAYQLMVDVFGNYVIQKFFEFGSLEQKLALAERIRGHVLSLALQMYGSRVIEKALEFIPSDQQNEMVRELDGHVLKCVKDQNGNHVVQKCIECVQPQSLQFIIDAFKGQVFALSTHPYGCRVIQRILEHCLPDQTLPILEELHQHTEQLVQDQYGNYVIQHVLEHGRPEDKSKIVAEIRGNVLVLSQHKFASNVVEKCVTHASRTERAVLIDEVCTMNDGPHSALYTMMKDQYANYVVQKMIDVAEPGQRKIVMHKIRPHIATLRKYTYGKHILAKLEKYYMKNGVDLGDPKKKRKVDPKKKRKVGGRGGGGSGGGGSGGGGSGPA
[2]
  hMLH1 expression, fold over background (change in mRNA levels): ≤ 20 fold

B2: PUFa-VP64: PUF(3-2) domain with NLS fused to VP64 (protein)
chain: MGILPPKKKRKVSRGRSRLLEDFRNNRYPNLQLREIAGHIMEFSQDQHGSRFIQLKLERATPAERQLVFNEILQAAYQLMVDVFGNYVIQKFFEFGSLEQKLALAERIRGHVLSLALQMYGSRVIEKALEFIPSDQQNEMVRELDGHVLKCVKDQNGNHVVQKCIECVQPQSLQFIIDAFKGQVFALSTHPYGCRVIQRILEHCLPDQTLPILEELHQHTEQLVQDQYGNYVIQHVLEHGRPEDKSKIVAEIRGNVLVLSQHKFASNVVEKCVTHASRTERAVLIDEVCTMNDGPHSALYTMMKDQYANYVVQKMIDVAEPGQRKIVMHKIRPHIATLRKYTYGKHILAKLEKYYMKNGVDLGGPAGSGRADALDDFDLDMLGSDALDDFDLDMLGSDALDDFDLDMLGSDALDDFDLDMLYID
[3]; TetO-targeting sgRNA with 1 copy of PBSa
  activation with only one PBSa: previously not observed
[3]
  transgene activation with 15, 20, and 47 copies of PBS: slightly lower, albeit still substantial transgene activation

B3: PUFb-VP64: PUF(6-2/7-2) domain with NLS fused to VP64 (protein)
chain: B2 chain with S122C, E126Q, N230S, Q234E, S266N, E270Q
[3]
  transgene activation with 15, 20, and 47 copies of PBS: slightly lower, albeit still substantial transgene activation

From US11780895B2, “Targeted DNA demethylation and methylation” (The Jackson Laboratory, priority 2016, dated 2023)
